Data on 12 molecules can be found in US20200048328A1 (Bristol-Myers Squibb, published 2020).

The target in test [1] is T1, rhesus serum albumin (rhesus, UniProt Q28522 17-600).
T1 construct: also called RhSA; Rh-SA
The test can be described thus: SPR, albumin immobilized, Adnectin 250 nM.

Another test deals with T2, rat serum albumin (rat, UniProt P02770 25-608).
T2 construct: also called Rat SA; RSA
The test can be described thus: SPR, albumin immobilized, Adnectin 250 nM.

The target in test [2] is T3, mouse serum albumin (mouse, UniProt P07724 25-608).
T3 construct: also called MSA; MuSA
The test can be described thus: SPR, albumin immobilized, Adnectin 250 nM.

Test [3] concerns the target T4, human serum albumin (human, UniProt P02768 25-609).
T4 construct: immobilized on chips or coated on plates elsewhere; also called HSA; HuSA
The test can be described thus: SPR, albumin immobilized, Adnectin 250 nM.

Test [4] deals with T1, rhesus serum albumin. The test can be described thus: SPR, albumin immobilized, HBSP pH 7.4.
The target of test [5] is T3, mouse serum albumin. The test can be described thus: SPR, albumin immobilized, HBSP pH 7.4.
The target in test [6] is T4, human serum albumin. The test can be described thus: SPR, albumin immobilized, HBSP pH 7.4.
For test [7], the target named is T5, human PCSK9 (human, UniProt Q8NBP7 31-692).
T5 construct: also called hPCSK9; huPCSK9
The test can be described thus: BLI (Octet), biotinylated PCSK9 on tips, tandem in complex with excess HSA.

Test [8] deals with T5, human PCSK9. The test can be described thus: PCSK9:EGFA FRET 1, competition.
For test [9], the target named is T1, rhesus serum albumin. The test can be described thus: SPR, albumin immobilized.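 Note: biacore SPR with human, rhesus or mouse serum albumin amine-coupled to the chip (about 1200 RU), 3 min association, 6-10 min dissociation, reference-subtracted traces fitted with a 1:1 model.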
The target of test [10] is T3, mouse serum albumin. The test can be described thus: SPR, albumin immobilized.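 Note: biacore SPR with human, rhesus or mouse serum albumin amine-coupled to the chip (about 1200 RU), 3 min association, 6-10 min dissociation, reference-subtracted traces fitted with a 1:1 model.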
For test [11], the target named is T4, human serum albumin. The test can be described thus: SPR, albumin immobilized.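 Note: biacore SPR with human, rhesus or mouse serum albumin amine-coupled to the chip (about 1200 RU), 3 min association, 6-10 min dissociation, reference-subtracted traces fitted with a 1:1 model.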
Test [12] concerns the target T5, human PCSK9. The test can be described thus: BLI (Octet), biotinylated PCSK9 on tips, no HSA.
The target of test [13] is T1, rhesus serum albumin. The test can be described thus: SPR, albumin immobilized, acetate pH 5.5.
Test [14] addresses T3, mouse serum albumin. The test can be described thus: SPR, albumin immobilized, acetate pH 5.5.
The target of test [15] is T4, human serum albumin. The test can be described thus: SPR, albumin immobilized, acetate pH 5.5.
The target of test [16] is T1, rhesus serum albumin. The test can be described thus: direct binding ELISA, albumin coated.
The target in test [17] is T3, mouse serum albumin. The test can be described thus: direct binding ELISA, albumin coated.
Test [18] addresses T4, human serum albumin. The test can be described thus: direct binding ELISA, albumin coated.
Test [19] addresses T5, human PCSK9. The test can be described thus: PCSK9:EGFA FRET 2, competition.
The target in test [20] is T1, rhesus serum albumin. The test can be described thus: SPR, albumin immobilized, acetate pH 7.4.
The target in test [21] is T3, mouse serum albumin. The test can be described thus: SPR, albumin immobilized, acetate pH 7.4.
For test [22], the target named is T4, human serum albumin. The test can be described thus: SPR, albumin immobilized, acetate pH 7.4.
The target in test [23] is T5, human PCSK9. The test can be described thus: PCSK9:LDLR FRET, competition.

Positions count from the first letter of the chain named.

B1: 5963_A02.PS5-2 (designed binder)
chain: MGCSTSGVSDVPRDLEVVAATPTSLLISWDAPAVTVRYYRITYGREVQKYSDLGPLYIYQEFTVPGSKSTATISGLKPGVDYTITVYAVTGSGESPASSKPISINYRTPHHHHHH
For B1, the off-rate (koff) with rhesus serum albumin [1] is 0.000313 s⁻¹; in the test with rat serum albumin, 0.000902 s⁻¹; in the test with mouse serum albumin [2] it was 0.000492 s⁻¹; with human serum albumin [3], 0.000253 s⁻¹.

B2: 5963_D01.PS5-2 (designed binder)
chain: MGVSDVPRDLEVVCATPTSLLISWDAPAVTVRYYRITYGREVQKYSDLGPLYIYQEFTVPGSKSTATISGLKPGVDYTITVYAVTGSGESPASSKPISINYRTPHHHHHH
B2: the dissociation rate constant (koff) with rhesus serum albumin [1] stood at 0.000313 s⁻¹; with rat serum albumin it was 0.000858 s⁻¹; with mouse serum albumin [2] it was 0.000499 s⁻¹; in the test with human serum albumin [3], 0.000247 s⁻¹.

B3: 5963_F03.PS5-2 (designed binder)
chain: B2 chain with C14A, A28C
Consider B3, for which the koff with rhesus serum albumin [1] is 0.000312 s⁻¹; with rat serum albumin, 0.000825 s⁻¹; with mouse serum albumin [2], 0.000504 s⁻¹; with human serum albumin [3], 0.000251 s⁻¹.

B4: 5963_E02.PS5-2 (designed binder)
chain: B2 chain with C14A, T65C
Take B4: the koff came out at 0.000284 s⁻¹ with rhesus serum albumin [1], 0.00076 s⁻¹ with rat serum albumin, 0.000461 s⁻¹ with mouse serum albumin [2] and 0.000228 s⁻¹ with human serum albumin [3].

B5: 5963_E01.PS5-2 (designed binder)
chain: B2 chain with C14A, T67C
For B5, the koff amounted to 0.000313 s⁻¹ with rhesus serum albumin [1], 0.000848 s⁻¹ with rat serum albumin, 0.000507 s⁻¹ with mouse serum albumin [2] and 0.00025 s⁻¹ with human serum albumin [3].

B6: 5916_A04.PS5-2 (designed binder)
chain: MGVSDVPRDLEVVAATPTSLLISWDAPAVTVRYYRITYGREVQKYSDLGPLYIYQEFTVPGSKSTATISGLKPGVDYTITVYAVTGSGESPASSKPISINYRTPEDEDGCHHHHHH
Regarding B6, the koff with rhesus serum albumin [1] came to 0.000172 s⁻¹; with rat serum albumin, 0.000547 s⁻¹; in the test with mouse serum albumin [2] it was 0.000307 s⁻¹; with human serum albumin [3] it was 0.000148 s⁻¹.

B7: PCSK9-PKE2 tandem 4472_E06 (designed binder)
PCSK9 domain: MGVSDVPRDLEVVAATPTSLLISWDAPAEGYGYYRITYGETGGNSPVQEFTVPVSKGTATISGLKPGVDYTITVYAVEFDFPGAGYYHRPISINYRTE
PKE2 domain: GVSDVPRDLEVVAATPTSLLISWDAPAVTVRYYRITYGREVQKYSDLGPLYIYQEFTVPGSKSTATISGLKPGVDYTITVYAVTGSGESPASSKPISINYRTEHHHHHH
modifications: The real molecule is ONE polypeptide: PCSK9 domain, undisclosed linker I (a code letter), PKE2 domain. It is given here as two chains because the linker letters are unknown.
notes: also called 4427_E06; not shown: The inter-domain linker
In the case of B7, the Kd in the test with rhesus serum albumin [4] stood at 64.9 nM; in the test with mouse serum albumin [5], 21.8 nM; with human serum albumin [6], 61.4 nM; with human PCSK9 [7], 1 nM; with rhesus serum albumin [9], 71.9 nM; with mouse serum albumin [10], 20 nM. Moreover, the equilibrium dissociation constant (Kd) was determined as 68.4 nM in the test with human serum albumin [11]; 0.724 nM with human PCSK9 [12]; 91.1 nM in the test with rhesus serum albumin [13]; 114 nM with mouse serum albumin [14]; 35.2 nM with human serum albumin [15]; 65.4 nM with rhesus serum albumin [20]. Further, the Kd with mouse serum albumin [21] amounted to 26.1 nM; with human serum albumin [22], 64.9 nM. Besides, the koff worked out at 0.000332 s⁻¹ in the test with rhesus serum albumin [4]; 0.00033 s⁻¹ with mouse serum albumin [5]; 0.000292 s⁻¹ in the test with human serum albumin [6]; 0.000209 s⁻¹ with human PCSK9 [7]; 0.000415 s⁻¹ with rhesus serum albumin [9]; 0.0003 s⁻¹ with mouse serum albumin [10]. The koff amounted to 0.000362 s⁻¹ with human serum albumin [11]; 0.0002 s⁻¹ with human PCSK9 [12]; 0.000788 s⁻¹ with rhesus serum albumin [13]; 0.00152 s⁻¹ with mouse serum albumin [14]; 0.000478 s⁻¹ with human serum albumin [15]; 0.000408 s⁻¹ in the test with rhesus serum albumin [20]. Moreover, the results for the dissociation rate constant (koff) with mouse serum albumin [21] and with human serum albumin [22] were 0.000362 s⁻¹ and 0.000383 s⁻¹, respectively. Moreover, the kon in the test with rhesus serum albumin [4] worked out at 5110 M⁻¹ s⁻¹; in the test with mouse serum albumin [5], 15200 M⁻¹ s⁻¹; with human serum albumin [6], 4760 M⁻¹ s⁻¹; with human PCSK9 [7], 207000 M⁻¹ s⁻¹; with rhesus serum albumin [9] it was 5770 M⁻¹ s⁻¹; with mouse serum albumin [10] it was 15000 M⁻¹ s⁻¹. Also, the kon amounted to 5300 M⁻¹ s⁻¹ with human serum albumin [11]; 281000 M⁻¹ s⁻¹ with human PCSK9 [12]; 8640 M⁻¹ s⁻¹ in the test with rhesus serum albumin [13]; 13400 M⁻¹ s⁻¹ in the test with mouse serum albumin [14]; 13600 M⁻¹ s⁻¹ in the test with human serum albumin [15]; 6240 M⁻¹ s⁻¹ with rhesus serum albumin [20]. For the same molecule, the values for the kon with mouse serum albumin [21] and with human serum albumin [22] were 14100 M⁻¹ s⁻¹ and 5910 M⁻¹ s⁻¹, respectively. In addition, the IC50 with human PCSK9 [8] amounted to 7.67 nM; with human PCSK9 [19] it was 5.68 nM; with human PCSK9 [23] it was 1.6 nM. Besides, the EC50 turned out to be 40.1 nM with rhesus serum albumin [16], 4.2 nM with mouse serum albumin [17] and 67.3 nM with human serum albumin [18].

B8: PCSK9-PKE2 tandem 4472_B03 (designed binder)
PCSK9 domain: B7 PCSK9 domain
PKE2 domain: B7 PKE2 domain
notes: not shown: The inter-domain linker; In the real molecule the two parts below are one polypeptide joined by this linker
Turning to B8, the IC50 was 7.45 nM in the test with human PCSK9 [8], 4.83 nM with human PCSK9 [19] and 1.4 nM with human PCSK9 [23]. The EC50 stood at 98.2 nM in the test with rhesus serum albumin [16], 14.8 nM in the test with mouse serum albumin [17] and 124 nM in the test with human serum albumin [18].

B9: PCSK9-PKE2 tandem 4472_E05 (designed binder, not shown: small tags and cut ends)
PCSK9 10Fn3: B7 PCSK9 domain
PKE2 10Fn3: B7 PKE2 domain
modifications: The two parts are one polypeptide in the real molecule, joined by the undisclosed linker R; they are given here as separate chains.
Take B9: the results for the IC50 with human PCSK9 [8], with human PCSK9 [19] and with human PCSK9 [23] were 5.66 nM, 4.35 nM and 1.5 nM, respectively. Moreover, the EC50 with rhesus serum albumin [16] was found to be 63.1 nM; with mouse serum albumin [17], 13.1 nM; with human serum albumin [18] it was 102 nM.

B10: PCSK9-PKE2 tandem 4472_A04 (designed binder)
PCSK9 domain: B7 PCSK9 domain
PKE2 domain: B7 PKE2 domain
notes: as for B8
On to B10, for which the results for the IC50 in the test with human PCSK9 [8], with human PCSK9 [19] and in the test with human PCSK9 [23] were 5.14 nM, 4.44 nM and 1.1 nM, respectively. Further, the EC50 came to 84 nM in the test with rhesus serum albumin [16], 16.7 nM in the test with mouse serum albumin [17] and 144 nM in the test with human serum albumin [18].

B11: PCSK9-PKE2 tandem 4472_D06 (designed binder)
PCSK9 domain: B7 PCSK9 domain
PKE2 domain: B7 PKE2 domain
notes: as for B8
In the case of B11, the IC50 in the test with human PCSK9 [8] stood at 8.12 nM; with human PCSK9 [19], 6.51 nM; with human PCSK9 [23], 1.8 nM. The EC50 with rhesus serum albumin [16] came out at 93.1 nM; with mouse serum albumin [17], 15.6 nM; in the test with human serum albumin [18] it was 139 nM.

B12: 5916_E03.PS5-2 (designed binder)
chain: MGVSDVPRDLEVVAATPTSLLISWDAPAVTVRYYRITYGREVQKYSDLGPLYIYQEFTVPGSKSTATISGLKPGVDYTITVYAVTGSGESPASSKPISINYRTPCHHHHHH
On to B12, for which the koff with rhesus serum albumin [1] amounted to 0.000272 s⁻¹; in the test with rat serum albumin it was 0.000786 s⁻¹; with mouse serum albumin [2] it was 0.000452 s⁻¹; in the test with human serum albumin [3], 0.000211 s⁻¹.
